The record followed here is article PMC7065273 (Molecular cell, 2019).

This experiment addresses His6-FLAG-tagged U2AF2 (amino acids 367-475), purified from E. coli (UniProt P26368 367-475). The experiment can be described thus: co-IP.

Sequence of His6-FLAG-tagged U2AF2 (amino acids 367-475), purified from E. coli (P26368 367-475): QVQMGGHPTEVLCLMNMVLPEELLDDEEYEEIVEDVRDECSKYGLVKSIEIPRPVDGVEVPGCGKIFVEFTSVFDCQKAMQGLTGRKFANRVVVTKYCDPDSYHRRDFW

As to APAAPGKPASAATVKRKRKSRWGPEEDKVELPPAEL (domain or fragment, UniProt Q8IWZ8 366-401, looked up) [GST-tagged SUGP1 (amino acids 366-401), purified from E. coli], the binding result is “binds”.
